Where no end group is shown, it is not given here. [ ]: non-standard residue; d: D form. Aib = CC(C)(N)C(=O)O
Biological target: T1, lecithin:cholesterol acyltransferase (LCAT), purified from human plasma (human, UniProt P04180 25-440)
T1 sequence (looked up): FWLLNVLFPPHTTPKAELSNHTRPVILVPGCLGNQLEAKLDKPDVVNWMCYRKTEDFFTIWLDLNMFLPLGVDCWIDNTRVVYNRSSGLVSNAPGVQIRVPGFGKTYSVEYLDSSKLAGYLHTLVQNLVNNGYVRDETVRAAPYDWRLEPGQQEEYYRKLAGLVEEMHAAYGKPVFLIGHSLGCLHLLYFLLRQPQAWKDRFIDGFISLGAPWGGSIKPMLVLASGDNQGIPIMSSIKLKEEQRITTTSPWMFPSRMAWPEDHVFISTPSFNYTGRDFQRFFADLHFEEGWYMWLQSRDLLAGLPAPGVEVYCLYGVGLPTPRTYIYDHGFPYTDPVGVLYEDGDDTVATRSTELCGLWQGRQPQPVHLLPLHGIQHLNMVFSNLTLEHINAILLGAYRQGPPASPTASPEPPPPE
Experiment: cell-based or functional assay

- ACTIVITY (%) LCAT: 9%
Binder: PVLDEFRDKLNE[Aib]LEALKQKLK [peptide 78]

From patent US6716816
